Blank lines part the entries; values can stand above or below the binder they belong to.
Legend:
[1] = molecular target: TGF-β1 (inducer of the TGF-β/Smad reporter signal) (UniProt P01137 279-390, limits assumed); assay: cell-based or functional assay
[2] = molecular target: T1, human TGF-β1 (immobilised on the CM5 chip, Biacore) (human, UniProt P01137 279-390); assay: SPR (Biacore), human TGF-β1 amine-coupled to CM5, antibody 250 nM, 1:1 fit
T1 construct: also called antigen TGF-β1
Protocol: The affinity constants of CT101, CT102, CT111, and CT112 with human TGF-β1 were measured with a Biacore molecular interaction meter. HBS-EP served as buffer, human TGF-β1 was immobilized on the surface of CM5 chip by Bicaore standard amino coupling. Binding of antibodies CT101, CT102, CT111, and CT112 to human TGF-β1 was performed, where the concentration of antibodies CT101, CT102, CT111, and CT112 was 250 nM, the flow rate was 30 μl/min, the binding duration was 120 s, and the dissociation duration was 880 s. The chip was regenerated by using 10 mM glycine, where PH was 2.7, the flow rate was 30 μl/min, and the duration was 120 s. The affinity constants were obtained by data fitting analysis with a 1:1 model. Data was collected with Biacore Control 2.0 software and analyzed using Biacore T200 Evaluation 2.0 software. The kinetics parameters of antibodies CT101, CT102, CT111, and CT112 binding to human TGF-β1 are shown in Table 2, and the test results of specific kinetic parameters of antibodies CT101, CT102, CT111, and CT112 binding to human TGF-β1 are shown in FIG. 7.

[3] = molecular target: T2, fusion protein TGF-β1-His (human, UniProt P01137 279-390); assay: competitive ELISA, TGF-β1-His coated; competitor human TGFβRII-ECD-Fc-biotin 0.1 µg/ml
T2 construct: 118 aa: a 112-residue TGF-β1 segment with a C-terminal His6 tag
Protocol: (§1) The ELISA plate was coated with TGF-β1-His and incubated at 37° C. for 3 hours. After rinsing the plate, 1% BSA was used for blocking at 37° C. for one hour. After rinsing the plate, serially diluted antibody and human TGFβRII-ECD-Fc-biotin (final concentration 0.1 μg/ml) were added and incubated at room temperature for 2 hours. After rinsing the plate, HRP labeled streptavidin SA-HRP (1:2000) working solution was added and incubated at 37° C. for 30 minutes. After rinsing the plate, TMB developing solution was added to develop for 5 min in a dark place, and termination solution was added to terminate the chromogenic reaction. The ELISA plate was immediately put into an ELISA reader, and the optical wavelength of 450 nm was selected to read the OD value of each well of the ELISA plate. The data was analyzed and processed with SoftMax Pro software.

[4] = molecular target: T2, fusion protein TGF-β1-His; assay: indirect ELISA, plate coated with TGF-β1-His, detection with enzyme-labeled anti-human IgG
Protocol: as §1, with “blocking” for “blocking at 37° C.”, “antibody was” for “antibody and human TGFβRII-ECD-Fc-biotin (final concentration 0.1 μg/ml) were”, “at 37° C.” for “at room temperature”, “for 60 minutes.” for “for 2 hours.”, “plate, enzyme-labeled donkey anti-human IgG secondary antibody” for “plate, HRP labeled streptavidin SA-HRP (1:2000)”, “5 minutes” for “5 min”

[5] = molecular target: T1, human TGF-β1 (immobilised on the CM5 …); assay: SPR (Biacore), human TGF-β1 amine-coupled to CM5, 1:1 fit
Protocol: The affinity constants of CT101 with human TGF-β1 were measured with a Biacore system for molecular interaction. HBS-EP served as buffer, human TGF-β1 was immobilized on the surface of CM5 chip by Bicaore standard amino coupling. Binding of antibody CT101 to human TGF-β1 was performed, where the concentration of antibody CT101 was 8-250 nM (2 fold dilution), the flow rate was 30 μl/min, the binding duration was 120 s, and the dissociation duration was 880 s. The chip was regenerated using 10 mM glycine, where PH was 2.7, the flow rate was 30 μl/min, and the duration was 120 s. The affinity constants were obtained by data fitting analysis with a 1:1 model. Data was collected with Biacore Control 2.0 software and analyzed using Biacore T200 Evaluation 2.0 software. The kinetics parameters of antibodies CT102 and CAT192 binding to human TGF-β1 are shown in Table 2, and the test results of specific kinetic parameters of antibody CT101 to human TGF-β1 are shown in FIG. 21.

[6] = molecular target: T2, fusion protein TGF-β1-His; assay: competitive ELISA, plate coated with TGF-β1-His, antibody titrated against human TGFβRII-ECD-Fc-biotin (0.1 µg/ml), detection with SA-HRP
Protocol: as §1

[7] = molecular target: T2, fusion protein TGF-β1-His; assay: indirect ELISA, TGF-β1-His coated
Protocol: as §1, with “blocking” for “blocking at 37° C.”, “antibody was” for “antibody and human TGFβRII-ECD-Fc-biotin (final concentration 0.1 μg/ml) were”, “at 37° C.” for “at room temperature”, “for 60 minutes.” for “for 2 hours.”, “plate, enzyme-labeled donkey anti-human IgG secondary antibody” for “plate, HRP labeled streptavidin SA-HRP (1:2000)”, “5 minutes” for “5 min”

T2 sequence (P01137 other isoform, or with tags, fused parts or gaps limits assumed): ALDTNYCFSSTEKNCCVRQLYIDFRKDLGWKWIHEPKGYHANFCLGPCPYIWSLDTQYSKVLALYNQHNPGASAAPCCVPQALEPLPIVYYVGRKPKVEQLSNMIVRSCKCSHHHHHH
T1 sequence (P01137 279-390 limits assumed): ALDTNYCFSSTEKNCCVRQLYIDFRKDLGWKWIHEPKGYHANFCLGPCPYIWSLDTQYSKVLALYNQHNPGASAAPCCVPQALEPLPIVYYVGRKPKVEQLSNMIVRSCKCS
Chain of TGF-β1 (inducer of the TGF-β/Smad reporter signal) (P01137 279-390 limits assumed): as above

IC50, TGF-β/Smad luciferase reporter in HEK293 cells [1]: ~800 pM
B1: bifunctional antibody CT111 (bispecific antibody, human IgG4 S228P, kappa)
light: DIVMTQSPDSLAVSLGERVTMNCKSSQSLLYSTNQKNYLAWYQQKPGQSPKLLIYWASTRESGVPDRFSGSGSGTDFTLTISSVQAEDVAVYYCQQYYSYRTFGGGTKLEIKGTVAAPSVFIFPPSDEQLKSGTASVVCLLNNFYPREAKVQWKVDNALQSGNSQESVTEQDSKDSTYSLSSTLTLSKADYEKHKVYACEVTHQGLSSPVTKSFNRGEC
heavy: QVQLQQSGPEVVKPGASVKMSCKASGYTFTSYVIHWVRQKPGQGLDWIGYINPYNDGTDYDEKFKGKATLTSDTSTSTAYMELSSLRSEDTAVYYCAREKDNYATGAWFAYWGQGTLVTVSSASTKGPSVFPLAPCSRSTSESTAALGCLVKDYFPEPVTVSWNSGALTSGVHTFPAVLQSSGLYSLSSVVTVPSSSLGTKTYTCNVDHKPSNTKVDKRVESKYGPPCPPCPAPEFLGGPSVFLFPPKPKDTLMISRTPEVTCVVVDVSQEDPEVQFNWYVDGVEVHNAKTKPREEQFNSTYRVVSVLTVLHQDWLNGKEYKCKVSNKGLPSSIEKTISKAKGQPREPQVYTLPPCQEEMTKNQVSLWCLVKGFYPSDIAVEWESNGQPENNYKTTPPVLDSDGSFFLYSALTVDKSRWQEGNVFSCSVMHEALHNHYTQKSLSLSLGK
chain: EVQLVESGGGVVQPGRSLRLSCAASGFTFSSYGMHWVRQAPGKELEWVAVISYDGSIKYYADSVKGRFTISRDNSKNTLYLQMNSLRAEDTAVYYCARTGEYSGYDTDPQYSWGQGTTVTVSSGGGGSGGGGSGGGGSEIVLTQSPSSLSASVGDRVTITCRASQGIGDDLGWYQQKPGKAPILLIYGTSTLQSGVPSRFSGSGSGTDFTLTINSLQPEDFATYYCLQDSNYPLTFGGGTRLEIKYGPPCPPCPAPEFLGGPSVFLFPPKPKDTLMISRTPEVTCVVVDVSQEDPEVQFNWYVDGVEVHNAKTKPREEQFNSTYRVVSVLTVLHQDWLNGKEYKCKVSNKGLPSSIEKTISKAKGQPREPQVCTLPPSQEEMTKNQVSLSCAVKGFYPSDIAVEWESNGQPENNYKTTPPVLDSDGSFKLVSRLTVDKSRWQEGNVFSCSVMHEALHNHYTQKSLSLSLGK

Kd [2]: 1970 pM | koff [2]: 5.9e-05 s⁻¹ | kon [2]: 30000 M⁻¹ s⁻¹ | IC50, TGF-β/Smad luciferase reporter in HEK293 cells [1]: ~1000 pM
B2: bifunctional antibody CT112 (bispecific antibody, human IgG4 S228P, kappa)
light: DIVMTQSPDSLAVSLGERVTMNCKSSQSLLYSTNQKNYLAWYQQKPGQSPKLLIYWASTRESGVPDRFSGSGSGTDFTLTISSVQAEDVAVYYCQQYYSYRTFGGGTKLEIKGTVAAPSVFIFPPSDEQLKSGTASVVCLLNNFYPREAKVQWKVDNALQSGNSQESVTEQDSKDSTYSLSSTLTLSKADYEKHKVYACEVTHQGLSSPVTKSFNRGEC
heavy: B1 heavy
chain 1: EVQLVESGGGVVQPGRSLRLSCAASGFTFSSYGMHWVRQAPGKELEWVAVISYDGSIKYYADSVKGRFTISRDNSKNTLYLQMNSLRAEDTAVYYCARTGEYSGYDTDPQYSWGQGTTVTVSGGSGTVAAPSVFIFPPSDEQLKSGTASVVCLLNNFYPREAKVQWKVDNALQSGNSQESVTEQDSKDSTYSLSSTLTLSKADYEKHKVYACEVTHQGLSSPVTKSFNRGECSKYGPPCPPCPAPEFLGGPSVFLFPPKPKDTLMISRTPEVTCVVVDVSQEDPEVQFNWYVDGVEVHNAKTKPREEQFNSTYRVVSVLTVLHQDWLNGKEYKCKVSNKGLPSSIEKTISKAKGQPREPQVCTLPPSQEEMTKNQVSLSCAVKGFYPSDIAVEWESNGQPENNYKTTPPVLDSDGSFKLVSRLTVDKSRWQEGNVFSCSVMHEALHNHYTQKSLSLSLGK
chain 2: EIVLTQSPSSLSASVGDRVTITCRSSQGIGDDLGWYQQKPGKAPILLIYGTSTLQSGVPSRFSGSGSGTDFTLTINSLQPEDFATYYCLQDSNYPLTFGGGTRLEIKGSSASTKGPSVFPLAPCSRSTSESTAALGCLVKDYFPEPVTVSWNSGALTSGVHTFPAVLQSSGLYSLSSVVTVPSSSLGTKTYTCNVDHKPSNTKVDKRVES
notes: also called IgG CrossMab

IC50 [3]: 106 pM | IC50, TGF-β/Smad luciferase reporter in HEK293-CD4 cells [1]: 250 pM | IC50, TGF-β/Smad luciferase reporter in HEK293 cells [1]: ~250 pM | EC50 (read off the curve) [4]: ~80 pM | Kd [5]: 800 pM | koff [5]: 2.4e-05 s⁻¹ | kon [5]: 30000 M⁻¹ s⁻¹ | IC50 (read off the curve) [6]: ~90 pM | EC50 [7]: 84.5 pM
B3: anti-TGF-β1 antibody CAT192 (antibody, human IgG4, V domains shown)
VH: EVQLVESGGGVVQPGRSLRLSCAASGFTFSSYGMHWVRQAPGKELEWVAVISYDGSIKYYADSVKGRFTISRDNSKNTLYLQMNSLRAEDTAVYYCARTGEYSGYDTDPQYSWGQGTTVTVSS
VL: EIVLTQSPSSLSASVGDRVTITCRSSQGIGDDLGWYQQKPGKAPILLIYGTSTLQSGVPSRFSGSGSGTDFTLTINSLQPEDFATYYCLQDSNYPLTFGGGTRLEIK
notes: The background section calls CAT192 a human IgG4 monoclonal antibody
